# Data as given in the RNAGym collection of RNA variant scans (doi:10.1101/gr.219683.116).
# B1: mRNA-splicing (parent)
# chain: AGUUGCUGCUGGGAGCUCCAGCACAGUGAAAUGGACAGAAGGGCAGAGCAA
# Variants of: B1
# Test: exon inclusion enrichment index; higher = more inclusion; WT1 exon 5 minigene, HEK293
row,Variant,exon inclusion enrichment index
1,G5C C6G U7C U10C C18U,3.14
2,G5C C6U G8C C9U U10C G46A A47G,0.717
3,G5C C6U G8C C9U U10C G46A A47U,2.29
4,G2C U3G G5C C6U G8C C9U U10C,1.98
5,G5C C6A U7C G8A U10A A45U,0.211
6,G5C C6U G8C C9U U10A G11U,0.953
7,A29C A30C,0.418
8,G5U G8U C9U A14C,0.108
9,G5A C6U U7A G8U C9A U32A G33C,0.0967
10,G5C C6A U7C G8A C9U,0.616
11,G5U G8U C9U A35U C36U,0.000565
12,G5C C6G U7C C9G,1.96
13,G5C C6A U7C G8A U10A C19A A20C,0.0294
14,G5A C6G U7G C9A A35U C36G,0.00119
15,C6A U7A C9A U10A G46A A47U,0.928
16,C6A U7A C9A U10A G46A A47C,1.64
17,C6A U7A C9A U10A C36G A37G,0.0922
18,G5A C6G U7G C9G U10G,0.0568
19,C6A U7C C9A U10C G21U C22U,1.78
20,G5A C6U U7A G8U C9A G38A A39U,0.00385
21,U4G G5A C6G U7G C9A,0.00812

row,Variant,exon inclusion enrichment index
1,C6A U7A C9A U10A G12U G13U,0.144
2,C36U A37C,0.0746
3,G5A C6G U7G C9A G38A,0.000584
4,C44U A45G,0.0801
5,G2A U3C G5U G8U C9U,0.198
6,C6A U7C C9A U10C G15U,3.57
7,C6A U7A C9A U10A G34U A35C,0.203
8,G5A U7C G8A U10C A25C G26A,4.29
9,G5A C6G U7G C9A G33U,0.000815
10,C6A U7A C9A U10A G41C G42C,2.14
11,G5A C6G U7G C9A G13A A14U,0.0021
12,G5A C6G U7G C9A G13A A14G,0.00529
13,G5C U7G C9A,1.66
14,G5A C6U U7A G8U C9A U10A G11A,0.0538
15,G5U G8U C9U A35G C36G,0.00476
16,C6A U7C C9A U10C G42C G43C,3.4
17,C6A U7A C9A U10A U27C G28A,0.886
18,G2U U3C G5C C6G U7C U10C,5.85
19,G5C C6G U7C U10C A40G,3.16
20,G5A C6U U7A G8U C9A G12U,0.0278
21,G5A C6U U7A G8U C9A G12A,0.0361

row,Variant,exon inclusion enrichment index
1,G5C C6A U7C G8A U10A A40C G41U,0.0519
2,G5A U7C G8A U10C G21C C22A,2.27
3,G5C C6G U7C U10C G38A,2.05
4,G2A U3G C6A U7C C9A U10C,2.22
5,G5C C6A U7C G8A,0.613
6,G5A C6G U7G C9A A35G C36A,0.00181
7,G5U U7G C9U,0.575
8,G5C C6A U7C G8A U10A A35U C36G,0.00777
9,G5C C6A U7C G8A U10A G43A C44U,0.16
10,G5C C6A U7C G8A U10A G38C A39G,0.111
11,G5A C6U U7A G8U C9A A30G A31C,0.00117
12,G5C C6G U7C U10C G42C G43A,4
13,G5C C6A U7C G8A U10A G28U A29C,0.0517
14,G5U G8U C9U A39G A40U,0.00232
15,C6A U7A C9A U10A C16U U17G,0.212
16,G5A C6U U7A G8U C9A U17A C18A,0.0198
17,G5C C6G U7C U10C G46C A47G,3.52
18,C6A U7C C9A U10C A47C G48A,2.16
19,C9U U10G,0.493
20,C9U U10C,2.55
21,C22G A23C,1.36

row,Variant,exon inclusion enrichment index
1,C6A U7A C9A U10A G43C C44A,2.09
2,G5C C6A U7C G8A U10A A30C,0.0836
3,U4A C6G U7C U10C,0.262
4,C6A U7C C9A G11A,0.337
5,G5C C6A U7C G8A U10A U27C G28U,0.0768
6,G5C C6A U7C G8A U10A A20U,0.199
7,G5C C6A U7C G8A U10A U32C G33C,0.153
8,G5C C6G U7C U10C G28C,2.68
9,U3C U4G G5A C6G U7G C9A,0.106
10,G5A U7C G8A U10C U27A G28U,0.834
11,G5C C6A U7C G8A C9U U10A,0.0185
12,G5C C6A U7C G8A U10A U32G G33A,0.00787
13,G5C C6U U7C C9A U10C,3.23
14,G5U G8U C9U C44A,0.454
15,C6A U7A C9A U10A A37G G38A,0.801
16,C6A U7A C9A U10A A29U,0.131
17,G5C C6G U7C U10C G34A A35U,1.96
18,G5C C6G U7C U10C G34A A35G,2.26
19,A20G G21C,2.64
20,G5C C6G U7C U10C A20U G21C,2.93
